Where only a bound is given, the exact number is not on record here.

This data set deals with Hsf1 wt (trimer) (human). As to the kind of experiment: fluorescence polarization. As to conditions: printed as <= 5 nM; 25 C; Hsf1 SEC buffer: 25 mM HEPES/NaOH pH 7.5, 150 mM NaCl, 10% glycerol, 2 mM DTT; FP at 25 C (5 nM DNA titration; 25 nM DNA and 100 nM trimer for dissociation) ….

As a reminder, the Kd is a measure of binding affinity in units of concentration. Lower therefore signals higher affinity. For the substance 3xHSE DNA (Alexa Fluor 488), the Kd was less than 5 nM.

The values above are taken from publication PMC7360973.
